Our source for the specific binding of 20 ng/ml GpL-TNF, fold over the unspecific background (the pair that is blocked) values is paper PMC5925078.

The target in test [1] is TNFR2 variant in which the intracellular binding site for TRAF2 has been substituted by YFP, P20333. Briefly: cellular binding study with GpL (luciferase) fusion protein; competition; HEK293 cells transiently expressing TNFR1 or TNFR2 (YFP deletion mutants); preincubation with purified sTNF or PGRN at 37°C; 10-20 ng/ml GpL-TNF; EV-transfected cells as non-specific binding.

The target in test [2] is cytosolic deletion mutant of TNFR1 in which the death domain has been replaced by YFP, P19438. Described as above.

B1: GpL-Flag-TNC-TNF (ligand)
chain: ACGCAAAPDIKDLLSRLEELEGLVSSLREQSDKPVAHVVANPQAEGQLQWLNRRANALLANGVELRDNQLVVPSEGLYLIYSQVLFKGQGCPSTHVLLTHTISRIAVSYQTKVNLLSAIKSPCQRETPEGAEAKPWYEPIYLGGVFQLEKGDRLSAEINRPDYLDFAESGQVYFGIIAL
As for B1, the specific binding of 20 ng/ml GpL-TNF, fold over the unspecific background (the pair that is blocked) was greater than 2400 fold in test [1] and greater than 800 fold in test [2].
